Measurements as given in patent US20210277053A1.
Where two headings read alike, the source gives them in different places.

Experiments:
Test in all cases: ELISA on immobilised human gamma globulin, anti-6-His detection; antibody-binding activity after 0.5 M NaOH, 25 C, 15 h divided by activity without alkali treatment
[1] = target: gamma globulin (manufactured by The Chemo-Sero-Therapeutic Research Institute), a human antibody (human)
[2] = target: gamma globulin (manufactured by The Chemo-Sero-Therapeutic Research Institute), a human antibody (human); remark: listed apart in the source
[3] = target: gamma globulin (manufactured by The Chemo-Sero-Therapeutic Research Institute), a human antibody (human); remark: listed apart in the source
[4] = target: gamma globulin (manufactured by The Chemo-Sero-Therapeutic Research Institute), a human antibody (human); remark: listed apart in the source

| Substance | Remaining activity [%] [1] [%] | Remaining activity [%] [2] [%] | Remaining activity [%] [3] [%] | Remaining activity [%] [4] [%] |
| --- | --- | --- | --- | --- |
| SpA7b (SpA6a with Asn3Ile) (designed binder) | 88 |  |  |  |
| SpA5e (SpA4a with Asn11Tyr) (designed binder) |  | 85 |  |  |
| SpA6a (SpA5d with Glu15Ala) (designed binder) | 83 | 86 | 91 |  |
| SpA6c (SpA6a with Lys(Glu)58Val) (designed binder) |  | 87 |  |  |
| SpA5d (SpA4a with Asn11Lys) (designed binder) |  | 89 | 88 | 86 |
| SpA7a (SpA6a with Val40Ala) (designed binder) |  | 89 |  |  |
| SpA5f (SpA5d with Lys(Glu)58Gly) (designed binder) |  |  | 90 |  |
| SpA6b (SpA6a with Lys(Glu)58Asp) (designed binder) |  | 87 |  |  |
